# According to article PMC9482650, “Quantitative fragmentomics allow affinity mapping of interactomes” (Nature Communications, 2022):
# Numbering of substitutions follows the chain as printed.
# T1: DFNB31_1, Q9P202
# T1 sequence (Q9P202 135-233, limits assumed, looked up): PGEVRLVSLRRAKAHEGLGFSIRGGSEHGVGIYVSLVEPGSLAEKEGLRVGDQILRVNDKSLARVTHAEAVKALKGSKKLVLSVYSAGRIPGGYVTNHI
# T2: FRMPD1, Q5SYB0
# T2 sequence (Q5SYB0 52-145, limits assumed, looked up): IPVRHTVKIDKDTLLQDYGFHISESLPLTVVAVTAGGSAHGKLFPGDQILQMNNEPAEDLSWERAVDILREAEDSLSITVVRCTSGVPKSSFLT
# T3: LIN7A, O14910
# T3 sequence (O14910 103-200, limits assumed, looked up): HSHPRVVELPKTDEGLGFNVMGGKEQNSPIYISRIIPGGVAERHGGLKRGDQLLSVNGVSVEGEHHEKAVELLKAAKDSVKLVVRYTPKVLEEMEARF
# T4: LIN7B, Q9HAP6
# T4 sequence (Q9HAP6 88-185, limits assumed, looked up): T3 sequence (O14910 103-200, limits assumed, looked up) with S2A, V20I, I35V, E42D, H65Q, K77Q, D78G, K89R
# T5: LNX2_2, Q8N448
# T5 sequence (Q8N448 334-432, limits assumed, looked up): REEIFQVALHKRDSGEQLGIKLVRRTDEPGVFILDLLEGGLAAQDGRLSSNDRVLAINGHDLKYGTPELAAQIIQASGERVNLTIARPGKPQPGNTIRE
# T6: MPDZ_10, O75970
# T6 sequence (O75970 1624-1722, limits assumed, looked up): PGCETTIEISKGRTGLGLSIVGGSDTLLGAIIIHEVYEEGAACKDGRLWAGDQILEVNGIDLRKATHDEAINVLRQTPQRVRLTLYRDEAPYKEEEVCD
# T7: NHERF3_4, Q5T2W1
# T7 sequence (Q5T2W1 373-468, limits assumed, looked up): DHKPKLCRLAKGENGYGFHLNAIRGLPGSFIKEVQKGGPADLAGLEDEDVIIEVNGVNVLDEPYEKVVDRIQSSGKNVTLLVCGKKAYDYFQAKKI
# T8: PDZD7_3, Q9H5P4
# T8 sequence (Q9H5P4 857-944, limits assumed, looked up): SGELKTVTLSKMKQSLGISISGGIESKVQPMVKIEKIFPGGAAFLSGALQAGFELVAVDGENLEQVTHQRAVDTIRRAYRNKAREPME
# T9: PDZRN3_1, Q9UPQ7
# T9 sequence (Q9UPQ7 244-349, limits assumed, looked up): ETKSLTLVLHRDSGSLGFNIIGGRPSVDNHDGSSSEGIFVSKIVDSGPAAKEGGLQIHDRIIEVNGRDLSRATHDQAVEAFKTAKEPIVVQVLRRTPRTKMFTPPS
# T10: RAPGEF6, Q8TEU7
# T10 sequence (Q8TEU7 525-625, limits assumed, looked up): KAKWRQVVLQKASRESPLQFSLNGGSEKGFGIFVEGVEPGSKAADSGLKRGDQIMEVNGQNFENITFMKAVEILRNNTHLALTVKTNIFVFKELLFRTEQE
# T11: SIPA1L2, Q9P2F8
# T11 sequence (Q9P2F8 945-1036, limits assumed, looked up): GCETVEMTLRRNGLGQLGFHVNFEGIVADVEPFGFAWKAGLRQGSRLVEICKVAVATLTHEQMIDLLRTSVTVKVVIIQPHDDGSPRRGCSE
# T12: SYNJ2BP, P57105
# T12 sequence (P57105 8-110, limits assumed, looked up): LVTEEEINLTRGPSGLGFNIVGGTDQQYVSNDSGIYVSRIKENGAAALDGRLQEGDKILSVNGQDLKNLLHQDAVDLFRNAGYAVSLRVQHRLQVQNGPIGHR
# T13: TIAM2, Q8IVF5
# T13 sequence (Q8IVF5 885-986, limits assumed, looked up): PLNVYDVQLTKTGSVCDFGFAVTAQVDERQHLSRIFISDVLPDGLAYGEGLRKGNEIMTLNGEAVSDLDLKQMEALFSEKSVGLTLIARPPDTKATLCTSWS
# B1: SEMA4C, Q9C0C4 (peptide)
# chain: PDSNPEESSV
# B2: ADGRG1, Q9Y653 (peptide)
# chain: SSGSTSSSRI
# B3: CLDN9, O95484 (peptide)
# chain: ASGLDKRDYV
# B4: KCNT1, Q5JUK3 (peptide)
# chain: NPETRDETQL
# Target: T1, DFNB31_1, Q9P202
# Experiment: holdup assay
# Design: key: below the threshold = too weak to quantify, mostly under pKd 3.1 to 4
# Details: plain residues with an end cap or a label only (N-terminal biotin on a linker: ado-ado)
row,Binder,pKd
1,B1,4
2,B2,4.27
3,B3,below the threshold
4,B4,4.02

# Target: DLG1_2, Q12959
# Experiment: holdup assay
# Design: key: below the threshold = too weak to quantify, mostly under pKd 3.1 to 4
# Details: plain residues with an end cap or a label only (N-terminal biotin on a linker: ado-ado)
# DLG1_2, Q12959, sequence (Q12959 314-412): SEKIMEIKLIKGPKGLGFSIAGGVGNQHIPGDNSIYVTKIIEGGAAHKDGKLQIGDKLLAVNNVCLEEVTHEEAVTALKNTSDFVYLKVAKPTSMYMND
row,Binder,pKd
1,B1,4.3
2,B2,below the threshold
3,B3,below the threshold
4,B4,3.88

# Target: DLG4_2, P78352
# Experiment: holdup assay
# Design: key: below the threshold = too weak to quantify, mostly under pKd 3.1 to 4
# Details: plain residues with an end cap or a label only (N-terminal biotin on a linker: ado-ado)
# DLG4_2, P78352, sequence (P78352 155-259): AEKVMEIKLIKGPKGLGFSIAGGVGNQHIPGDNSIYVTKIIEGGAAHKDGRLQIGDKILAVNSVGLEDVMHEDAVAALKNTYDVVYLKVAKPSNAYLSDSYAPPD
row,Binder,pKd
1,B1,4.22
2,B2,3.6
3,B3,below the threshold
4,B4,3.59

# Target: T2, FRMPD1, Q5SYB0
# Experiment: holdup assay
# Design: key: below the threshold = too weak to quantify, mostly under pKd 3.1 to 4
# Details: plain residues with an end cap or a label only (N-terminal biotin on a linker: ado-ado)
row,Binder,pKd
1,B1,below the threshold
2,B2,below the threshold
3,B3,below the threshold
4,B4,below the threshold

# Target: FRMPD2_2, Q68DX3
# Experiment: holdup assay
# Design: key: below the threshold = too weak to quantify, mostly under pKd 3.1 to 4
# Details: plain residues with an end cap or a label only (N-terminal biotin on a linker: ado-ado)
# FRMPD2_2, Q68DX3, sequence (Q68DX3 944-1038): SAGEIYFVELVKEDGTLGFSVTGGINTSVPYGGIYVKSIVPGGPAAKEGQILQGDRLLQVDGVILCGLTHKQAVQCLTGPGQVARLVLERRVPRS
row,Binder,pKd
1,B1,4.27
2,B2,below the threshold
3,B3,below the threshold
4,B4,below the threshold

# Target: FRMPD3, Q5JV73
# Experiment: holdup assay
# Design: key: below the threshold = too weak to quantify, mostly under pKd 3.1 to 4
# Details: plain residues with an end cap or a label only (N-terminal biotin on a linker: ado-ado)
# FRMPD3, Q5JV73, sequence (Q5JV73 12-100): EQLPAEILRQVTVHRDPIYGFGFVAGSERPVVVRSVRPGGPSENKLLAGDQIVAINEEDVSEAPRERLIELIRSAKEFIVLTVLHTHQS
row,Binder,pKd
1,B1,below the threshold
2,B2,below the threshold
3,B3,below the threshold
4,B4,below the threshold

# Target: HTRA1, Q92743
# Experiment: holdup assay
# Design: key: below the threshold = too weak to quantify, mostly under pKd 3.1 to 4
# Details: plain residues with an end cap or a label only (N-terminal biotin on a linker: ado-ado)
# HTRA1, Q92743, sequence (Q92743 360-477): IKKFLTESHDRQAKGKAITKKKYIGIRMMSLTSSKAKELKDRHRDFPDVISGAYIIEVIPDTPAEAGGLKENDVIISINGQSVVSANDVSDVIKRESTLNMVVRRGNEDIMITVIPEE
row,Binder,pKd
1,B1,3.85
2,B2,below the threshold
3,B3,3.84
4,B4,below the threshold

# Target: Inadl_3, Q8NI35
# Experiment: holdup assay
# Design: key: below the threshold = too weak to quantify, mostly under pKd 3.1 to 4
# Details: plain residues with an end cap or a label only (N-terminal biotin on a linker: ado-ado)
# Inadl_3, Q8NI35, sequence (Q8NI35 359-469): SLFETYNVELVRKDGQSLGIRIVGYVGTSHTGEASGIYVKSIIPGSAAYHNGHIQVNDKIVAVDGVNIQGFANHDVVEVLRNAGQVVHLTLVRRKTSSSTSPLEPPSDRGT
row,Binder,pKd
1,B1,below the threshold
2,B2,below the threshold
3,B3,below the threshold
4,B4,below the threshold

# Target: T3, LIN7A, O14910
# Experiment: holdup assay
# Design: key: below the threshold = too weak to quantify, mostly under pKd 3.1 to 4
# Details: plain residues with an end cap or a label only (N-terminal biotin on a linker: ado-ado)
row,Binder,pKd
1,B1,below the threshold
2,B2,below the threshold
3,B3,below the threshold
4,B4,below the threshold

# Target: T4, LIN7B, Q9HAP6
# Experiment: holdup assay
# Design: key: below the threshold = too weak to quantify, mostly under pKd 3.1 to 4
# Details: plain residues with an end cap or a label only (N-terminal biotin on a linker: ado-ado)
row,Binder,pKd
1,B1,below the threshold
2,B2,3.82
3,B3,below the threshold
4,B4,below the threshold

# Target: LNX1_2, Q8TBB1
# Experiment: holdup assay
# Design: key: below the threshold = too weak to quantify, mostly under pKd 3.1 to 4
# Details: plain residues with an end cap or a label only (N-terminal biotin on a linker: ado-ado)
# LNX1_2, Q8TBB1, sequence (Q8TBB1 371-470): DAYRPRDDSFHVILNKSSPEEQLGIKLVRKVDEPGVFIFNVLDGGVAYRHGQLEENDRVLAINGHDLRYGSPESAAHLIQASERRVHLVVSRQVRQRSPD
row,Binder,pKd
1,B1,below the threshold
2,B2,below the threshold
3,B3,below the threshold
4,B4,below the threshold

# Target: T5, LNX2_2, Q8N448
# Experiment: holdup assay
# Design: key: below the threshold = too weak to quantify, mostly under pKd 3.1 to 4
# Details: plain residues with an end cap or a label only (N-terminal biotin on a linker: ado-ado)
row,Binder,pKd
1,B1,below the threshold
2,B2,below the threshold
3,B3,3.92
4,B4,below the threshold

# Target: MAST2, Q6P0Q8
# Experiment: holdup assay
# Design: key: below the threshold = too weak to quantify, mostly under pKd 3.1 to 4
# Details: plain residues with an end cap or a label only (N-terminal biotin on a linker: ado-ado)
# MAST2, Q6P0Q8, sequence (Q6P0Q8 1099-1202): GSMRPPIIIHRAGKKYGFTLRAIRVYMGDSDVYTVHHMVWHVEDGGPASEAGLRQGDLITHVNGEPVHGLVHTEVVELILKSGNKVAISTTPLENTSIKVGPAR
row,Binder,pKd
1,B1,5.36
2,B2,4.68
3,B3,3.5
4,B4,5.68

# Target: T6, MPDZ_10, O75970
# Experiment: holdup assay
# Design: key: below the threshold = too weak to quantify, mostly under pKd 3.1 to 4
# Details: plain residues with an end cap or a label only (N-terminal biotin on a linker: ado-ado)
row,Binder,pKd
1,B1,below the threshold
2,B2,below the threshold
3,B3,below the threshold
4,B4,below the threshold

# Target: T7, NHERF3_4, Q5T2W1
# Experiment: holdup assay
# Design: key: below the threshold = too weak to quantify, mostly under pKd 3.1 to 4
# Details: plain residues with an end cap or a label only (N-terminal biotin on a linker: ado-ado)
row,Binder,pKd
1,B1,below the threshold
2,B2,below the threshold
3,B3,below the threshold
4,B4,below the threshold

# Target: T8, PDZD7_3, Q9H5P4
# Experiment: holdup assay
# Design: key: below the threshold = too weak to quantify, mostly under pKd 3.1 to 4
# Details: plain residues with an end cap or a label only (N-terminal biotin on a linker: ado-ado)
row,Binder,pKd
1,B1,3.9
2,B2,4.3
3,B3,below the threshold
4,B4,4.66

# Target: T9, PDZRN3_1, Q9UPQ7
# Experiment: holdup assay
# Design: key: below the threshold = too weak to quantify, mostly under pKd 3.1 to 4
# Details: plain residues with an end cap or a label only (N-terminal biotin on a linker: ado-ado)
row,Binder,pKd
1,B1,4.37
2,B2,below the threshold
3,B3,below the threshold
4,B4,4.47

# Target: PTPN3, P26045
# Experiment: holdup assay
# Design: key: below the threshold = too weak to quantify, mostly under pKd 3.1 to 4
# Details: plain residues with an end cap or a label only (N-terminal biotin on a linker: ado-ado)
# PTPN3, P26045, sequence (P26045 505-587): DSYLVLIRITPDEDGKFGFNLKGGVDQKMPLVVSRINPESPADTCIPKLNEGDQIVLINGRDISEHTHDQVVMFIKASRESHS
row,Binder,pKd
1,B1,4.83
2,B2,3.86
3,B3,below the threshold
4,B4,4.78

# Target: T10, RAPGEF6, Q8TEU7
# Experiment: holdup assay
# Design: key: below the threshold = too weak to quantify, mostly under pKd 3.1 to 4
# Details: plain residues with an end cap or a label only (N-terminal biotin on a linker: ado-ado)
row,Binder,pKd
1,B1,below the threshold
2,B2,3.7
3,B3,below the threshold
4,B4,below the threshold

# Target: SCRIB_2, Q14160
# Experiment: holdup assay
# Design: key: below the threshold = too weak to quantify, mostly under pKd 3.1 to 4
# Details: plain residues with an end cap or a label only (N-terminal biotin on a linker: ado-ado)
# SCRIB_2, Q14160, sequence (Q14160 857-960): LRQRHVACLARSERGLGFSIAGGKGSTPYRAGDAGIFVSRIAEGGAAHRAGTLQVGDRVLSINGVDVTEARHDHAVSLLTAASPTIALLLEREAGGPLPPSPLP
row,Binder,pKd
1,B1,4.43
2,B2,below the threshold
3,B3,below the threshold
4,B4,4.05

# Target: T11, SIPA1L2, Q9P2F8
# Experiment: holdup assay
# Design: key: below the threshold = too weak to quantify, mostly under pKd 3.1 to 4
# Details: plain residues with an end cap or a label only (N-terminal biotin on a linker: ado-ado)
row,Binder,pKd
1,B1,below the threshold
2,B2,below the threshold
3,B3,below the threshold
4,B4,below the threshold

# Target: SNX27, Q96L92
# Experiment: holdup assay
# Design: key: below the threshold = too weak to quantify, mostly under pKd 3.1 to 4
# Details: plain residues with an end cap or a label only (N-terminal biotin on a linker: ado-ado)
row,Binder,pKd
1,B1,5.45
2,B2,3.56
3,B3,3.62
4,B4,5.22

# Target: T12, SYNJ2BP, P57105
# Experiment: holdup assay
# Design: key: below the threshold = too weak to quantify, mostly under pKd 3.1 to 4
# Details: plain residues with an end cap or a label only (N-terminal biotin on a linker: ado-ado)
row,Binder,pKd
1,B1,5.09
2,B2,below the threshold
3,B3,below the threshold
4,B4,4.43

# Target: T13, TIAM2, Q8IVF5
# Experiment: holdup assay
# Design: key: below the threshold = too weak to quantify, mostly under pKd 3.1 to 4
# Details: plain residues with an end cap or a label only (N-terminal biotin on a linker: ado-ado)
row,Binder,pKd
1,B1,below the threshold
2,B2,3.82
3,B3,below the threshold
4,B4,below the threshold
